Measured values published in US20060253917A1 (published 2006).
Blank lines part the entries; values can stand above or below the binder they belong to.

Assays:
[1] = target: T1, OsMADS45 aa 50-198 (Oryza sativa, UniProt P0C5B0 50-198); experiment: Y2H; output trait library
T1 construct: bait, Gal4 DBD fusion; also called PN20231; O. sativa MADS box protein MADS45
T1 sequence: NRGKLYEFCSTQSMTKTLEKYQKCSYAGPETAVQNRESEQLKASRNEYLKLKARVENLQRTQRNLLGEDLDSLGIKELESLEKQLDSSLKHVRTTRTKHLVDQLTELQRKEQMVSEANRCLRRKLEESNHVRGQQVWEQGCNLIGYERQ
How it was run: (§1)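 Using an automated, high-throughput yeast two-hybrid assay provided by Myriad Genetics Inc. (Salt Lake City, Utah), protein-protein interactions were detected. Against either the input trait or the output trait rice prey library, a bait clone encoding a defined amino-acid fragment of a rice protein was screened. The encoding sequences of the prey clones that were retrieved were then compared against databases by BLAST to identify the interacting proteins.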

[2] = target: T2, OsHOS59 aa 1-206 (Oryza sativa, UniProt Q94LW4 113-311); experiment: Y2H; output trait library
T2 construct: bait, Gal4 DBD fusion; also called PN20559
T2 sequence: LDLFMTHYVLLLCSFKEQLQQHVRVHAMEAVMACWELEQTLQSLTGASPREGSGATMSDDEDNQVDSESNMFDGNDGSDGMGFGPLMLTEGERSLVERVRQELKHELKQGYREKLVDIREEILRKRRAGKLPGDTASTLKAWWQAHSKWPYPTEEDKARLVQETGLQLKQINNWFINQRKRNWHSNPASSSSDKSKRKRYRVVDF
How it was run: as §1

[3] = target: T3, OsTFX1 aa 400-629 (Oryza sativa); experiment: Y2H; output trait library
T3 construct: bait, Gal4 DBD fusion; also called PN19697; O. sativa Putative Transcription Factor X1
How it was run: as §1

[4] = target: T4, Os018989-4003 aa 90-220 (Oryza sativa); experiment: Y2H; input trait library
T4 construct: bait, Gal4 DBD fusion; also called PN21044
T4 chain: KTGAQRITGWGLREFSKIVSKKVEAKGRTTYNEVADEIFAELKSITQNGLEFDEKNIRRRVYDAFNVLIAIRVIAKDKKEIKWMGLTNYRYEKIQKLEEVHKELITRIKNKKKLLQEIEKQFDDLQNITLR
How it was run: as §1

T3 sequence (chain, as listed by the source): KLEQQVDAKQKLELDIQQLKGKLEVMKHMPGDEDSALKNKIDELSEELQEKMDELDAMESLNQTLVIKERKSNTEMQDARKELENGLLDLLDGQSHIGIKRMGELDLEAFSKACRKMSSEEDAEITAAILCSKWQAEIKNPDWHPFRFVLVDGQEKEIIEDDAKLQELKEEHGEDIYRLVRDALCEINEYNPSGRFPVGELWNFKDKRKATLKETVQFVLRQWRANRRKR

B1: OsMADS14 aa 124-223 (other)
chain: ELQQLEQQLENSLKHIRSRKSQLMLESINELQRKEKSLQEENKVLQKELVEKQKVQKQQVQWDQTQPQTSSSSSSFMMREALPTTNISNYPAAAGERIED
notes: prey, AD fusion; also called PN20910
binding result [1]: binds

B2: OsPN23829 aa 1-247 (other)
chain: MALSVEKTSSGREYKVKDLSQADFGRLEIELAEVEMPGLMACRAEFGPSQPFKGARISGSLHMTIQTAVLIETLTALGAEVRWCSCNIFSTQDHAAAAIARDSAAVFAWKGETLEEYWWCTERCLDWGVGGGPDLIVDDGGDATLLIHEGVKAEEEFEKSGKVPDPESTDNAEFKIVLTIIRDGLKSDPSKYRKMKERLVGVSEETTTGVKRLYQMQETGALLFPAINVNDSVTKSKFDNLYGCRHS
notes: prey, AD fusion
binding result [2]: binds

B3: OsPN23829 prey clone -4-226 (other)
chain: MALSVEKTSSGREYKVKDLSQADFGRLEIELAEVEMPGLMACRAEFGPSQPFKGARISGSLHMTIQTAVLIETLTALGAEVRWCSCNIFSTQDHAAAAIARDSAAVFAWKGETLEEYWWCTERCLDWGVGGGPDLIVDDGGDATLLIHEGVKAEEEFEKSGKVPDPESTDNAEFKIVLTIIRDGLKSDPSKYRKMKERLVGVSEETTTGVKRLYQMQETGALLFPA
notes: prey, AD fusion
binding result [3]: binds

B4: OsPN30858 aa 230-400 (other)
chain: VRTFLERTHERCRASYMEAVLEKQSYILLSRNDVESLMRLDPANLSLQNSFGQLDHSIPDAEAVEVEIELSDLLLDMCPIKQENLIHDDQKLILLASLSDSLEYLADSVERLGESFINSSTMLENKNHIHQGRHTRSTSAIPKSLASLANEYRRLAIDCVRVLRLEMQLET
notes: prey, AD fusion; also called Novel Protein PN30858
binding result [2]: binds

More lines, now with the values ahead:

binding result [1]: binds
B5: OsMADS14 aa 82-197 (other)
chain: SAESDTQGNWCHEYRKLKAKVETIQKCQKHLMGEDLESLNLKELQQLEQQLENSLKHIRSRKSQLMLESINELQRKEKSLQEENKVLQKELVEKQKVQKQQVQWDQTQPQTSSSSS
notes: as for B1

binding result [3]: binds
B6: OsPN23829 prey clone -2-195 (other)
chain: MALSVEKTSSGREYKVKDLSQADFGRLEIELAEVEMPGLMACRAEFGPSQPFKGARISGSLHMTIQTAVLIETLTALGAEVRWCSCNIFSTQDHAAAAIARDSAAVFAWKGETLEEYWWCTERCLDWGVGGGPDLIVDDGGDATLLIHEGVKAEEEFEKSGKVPDPESTDNAEFKIVLTIIRDGLKSDPSKYRKM
notes: prey, AD fusion

binding result [4]: binds
B7: OsAAK72891 aa 342-638 (other)
chain: LQEKTEELFKFKREKGLLTLKNDVEFEPLRKKIPQIISRMDQIISKNIKMPSLCMTNDGLDERCISAKRIDSLYYENQHLRGLLADNMKDVKELSSQLSEASKEMSIQLSSEDDLLRQIAKIKEEYEDLQIEAGVRDGVYQTITRKLLDDSMNSMHDAATNFSTELSSLEAMISEKEKALCLSNEENRMLKEKIAELEQCLIQDKQEDPEVIKQESTEIILRDIEVAPHISPRRSHETPKQDMQYDELVKLNSSLEIASAALKEVENKNIDYNGIFTKNEQEKQLECILISIMKLSK
notes: prey, AD fusion; also called PN26317; O. sativa Putative Myosin Heavy Chain

binding result [4]: binds
B8: OsAAK72891 aa 322-549 (other)
chain: EIITYFKSEMSKLKRMHELDLQEKTEELFKFKREKGLLTLKNDVEFEPLRKKIPQIISRMDQIISKNIKMPSLCMTNDGLDERCISAKRIDSLYYENQHLRGLLADNMKDVKELSSQLSEASKEMSIQLSSEDDLLRQIAKIKEEYEDLQIEAGVRDGVYQTITRKLLDDSMNSMHDAATNFSTELSSLEAMISEKEKALCLSNEENRMLKEKIAELEQCLIQDKQED
notes: prey, AD fusion; also called PN26317
